Results from patent US20220332758A1, “PEPTIDE-BASED COMPOSITIONS AND METHODS FOR TREATING ALZHEIMER'S DISEASE” (Board of Regents, The Universityof Texas System, priority 2019, published 2022).
Where no end group is shown, it is not given here. [ ]: non-standard residue; d: D form. Aib = CC(C)(N)C(=O)O

Target: human housekeeping core (20S) proteasome purified from erythrocytes (human), P60900
Test: cell-based or functional assay

## GRKKRRQ[Aib]GQRRKKRG [Tat5-8,9 Aib]
  AC50, ChT-L activity (Suc-LLVY-MCA): 183 nM
  Max activation fold, ChT-L activity: 8.9 fold
